Reference: patent US20100233154A1, “TARGETED BINDING AGENTS DIRECTED TO HEPARANASE AND USES THEREOF 463” (MedImmune Limited, priority 2008, published 2010)

What was measured:
[1] = target: T1, recombinant heparanase captured with rabbit anti-heparanase antibody (Homo sapiens, UniProt Q9Y251); assay: ELISA binding to antibody-captured heparanase; conditions: antibody capture
T1 construct: Heparanase 8 and 50 kDa sub-units were cloned into pacGP67 as Sma 1-EcoR1 fragments; made in house; host or cells: Hi5 insect cells, baculovirus (pFastBac Dual)
T1 sequence (Q9Y251 158-543 limits assumed): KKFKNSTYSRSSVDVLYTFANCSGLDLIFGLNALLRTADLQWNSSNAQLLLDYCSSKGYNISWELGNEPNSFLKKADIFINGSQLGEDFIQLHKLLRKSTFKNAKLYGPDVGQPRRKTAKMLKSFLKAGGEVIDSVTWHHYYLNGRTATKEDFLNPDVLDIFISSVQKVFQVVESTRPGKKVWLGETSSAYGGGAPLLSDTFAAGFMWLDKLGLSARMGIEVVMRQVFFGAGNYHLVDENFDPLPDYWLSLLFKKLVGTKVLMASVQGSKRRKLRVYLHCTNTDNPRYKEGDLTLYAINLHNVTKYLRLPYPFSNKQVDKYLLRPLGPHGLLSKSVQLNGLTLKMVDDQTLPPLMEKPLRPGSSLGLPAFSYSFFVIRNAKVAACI
T1 sequence (Q9Y251 36-109 limits assumed): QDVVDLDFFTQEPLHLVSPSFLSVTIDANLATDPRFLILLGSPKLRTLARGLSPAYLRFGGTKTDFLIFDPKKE
Experimental: (§1) Titres of antibodies from Campaigns 1 and 2 were determined in an ELISA. Costar 3368 medium binding plates were coated directly with recombinant human heparanase or plates were coated with Rabbit anti-heparanase antibody (Raybiotech, Cat. IP-14-155) to capture recombinant heparanase. Directly coated heparanase was detected in three separate plates by mouse (InSight Cat. INS-26-1-0000), goat (Santa Cruz, Cat. sc26136) or rabbit (Raybiotech, Cat. IP-14-155) anti-heparanase antibodies, and quantified using appropriate secondary antibodies. Antibody captured heparanase was detected using mouse anti-heparanase (Insight Cat. INS-26-1-0000). At the end of the immunisation program, fusions were performed using mouse myeloma cells and lymphocytes isolated from the spleens and lymph nodes of the immunised mice by means of electroporation, as described in Example 2.
(§2) Initial screening to detect antibodies binding to human heparanase in both direct coating and antibody capture ELISAs as described above identified 800 hybridomas for further testing; 535 IgG2 from Campaign 1 and 2 and 265 IgG4 from Campaign 2. Enzyme inhibition assays and cross species binding to cynomolgus and murine heparanase, in an antibody capture ELISA, identifed 12 antibodies that were taken forward for sub-cloning to provide purified antibodies for further analysis. Subsequently, confirmation of activity against human heparanase (FIGS. 3 and 4) and inhibition of recombinant cynomolgus and murine heparanase activity in the HS-cryptate degradation assay (FIG. 5a-c), together with sequence analysis, identified 8 antibodies that are described in the table below.

murine heparanase = target: T2, murine heparanase (Mus musculus, UniProt Q6YGZ1); assay: Cross species capture ELISA, murine heparanase; type: binding; conditions: min 0.06, max 0.9 OD units
T2 construct: made in house; host or cells: Hek293 cells (conditioned medium), inferred for the ELISA
T2 sequence (Q6YGZ1 28-535): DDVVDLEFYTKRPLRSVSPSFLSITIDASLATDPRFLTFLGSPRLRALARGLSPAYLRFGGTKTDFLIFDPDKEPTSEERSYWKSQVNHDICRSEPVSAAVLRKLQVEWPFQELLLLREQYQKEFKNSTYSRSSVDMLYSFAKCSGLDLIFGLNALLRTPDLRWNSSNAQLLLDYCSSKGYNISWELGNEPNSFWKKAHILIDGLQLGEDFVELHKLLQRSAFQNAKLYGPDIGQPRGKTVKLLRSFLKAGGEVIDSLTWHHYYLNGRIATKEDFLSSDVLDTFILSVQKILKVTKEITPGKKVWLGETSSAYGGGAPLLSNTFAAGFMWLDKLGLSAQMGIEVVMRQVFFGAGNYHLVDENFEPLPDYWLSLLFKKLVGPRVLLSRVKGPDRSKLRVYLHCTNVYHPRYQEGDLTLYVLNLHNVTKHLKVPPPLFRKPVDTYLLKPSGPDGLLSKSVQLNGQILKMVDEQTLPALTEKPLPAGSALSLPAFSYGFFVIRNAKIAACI
Experimental: Initially, cross species binding to human, murine and cynomolgus heparanase was determined in an ELISA assay in which heparanase was captured onto plates using a rabbit anti-heparanase antibody (Raybiotech, Cat. IP-14-155). Exhaustive supernatants were added to the plates at a final dilution of 1:5 and bound antibody detected with a rabbit anti-human IgG Fc.

Recombinant Hpa1 = target: T3, Recombinant Hpa1 (Homo sapiens, UniProt Q9Y251); assay: Medium resolution Biacore affinity; type: binding; conditions: purified antibody captured on CM4 chip; Hpa1 1 nM and 10 nM; 25° C.
T3 construct: Heparanase 8 and 50 kDa sub-units were cloned into pacGP67 as Sma 1-EcoR1 fragments; made in house; host or cells: Hi5 insect cells, baculovirus (pFastBac Dual)
T3 sequence (Q9Y251 158-543 limits assumed): T1 sequence (Q9Y251 158-543 limits assumed)
T3 sequence (Q9Y251 36-109 limits assumed): T1 sequence (Q9Y251 36-109 limits assumed)
Experimental: For medium resolution Biacore™ tests, cloned and purified antibodies were used. Each of three purified antibodies (10E9.1, 15A1.2, and 15A11.1) were captured onto a high-density goat anti-human antibody surface over a CM4 Biacore™ chip. Recombinant Hpa1 was diluted to the desired concentration (1 nM and 10 nM) in 10 mM HEPES, 150 mM NaCl, 0.005% tween-20, 0.1 mg per ml BSA pH7.4 (25° C.) immediately prior to injection. Data were fit globally to a 1:1 interaction model with a term for mass transport included. The resulting KD values are summarised below in Table 4.

[2] = target: T4, recombinant human heparanase (Homo sapiens, UniProt Q9Y251); assay: ELISA binding to directly coated recombinant human heparanase
T4 construct: Heparanase 8 and 50 kDa sub-units were cloned into pacGP67 as Sma 1-EcoR1 fragments; made in house; host or cells: Hi5 insect cells, baculovirus (pFastBac Dual)
T4 sequence (Q9Y251 158-543 limits assumed): T1 sequence (Q9Y251 158-543 limits assumed)
T4 sequence (Q9Y251 36-109 limits assumed): T1 sequence (Q9Y251 36-109 limits assumed)
Experimental: as §1, §2

HCT116 xenograft = assay: Subcutaneous xenograft tumour growth, HCT116; type: in vivo, SCID mice; conditions: once weekly i.p.; 10E9.1 at 15 mg per kg
Experimental: MCF7-Hpa1#19 and HCT116 tumour cells were harvested from sub-confluent cultures. A total of 5×10^6 (MCF7-Hpa1#19) or 10^7 (HCT116) tumour cells were inoculated subcutaneously into the flank of male SCID mice. HCT116 tumour cells were implanted in PBS; […] cells were implanted in PBS containing 50% matrigel.
When tumours had attained ˜200 mm^3, tumour bearing mice were randomised into treatment groups and dosed with the following; PBS; an isotype matched control IgG2 antibody, 15 mg per kg; anti-heparanase antibody 10E9.1, 7.5 or 15 mg per kg. All treatments were administered once weekly i.p. Tumour growth was measured twice per week using calipers and tumour volumes calculated according to an ellipsoid volume is formula (3.142/6×length×width×width) from measures of the largest tumour diameter and two opposing widths (FIG. 11).

Binding to captured heparanase [1]: 0.87 OD units | Binding to heparanase Mouse (murine heparanase): 0.49 OD units | ka (Recombinant Hpa1): 2.06e+06 M⁻¹ s⁻¹ | kd (Recombinant Hpa1): 0.000112 s⁻¹ | Binding to direct coated heparanase [2]: 0.2 OD units
B1: 10E9.1: fully human anti-heparanase monoclonal antibody, G2κ; VH SEQ ID NO 2, VL SEQ ID NO 4; ATCC PTA-9489 (antibody, listed as Homo Sapiens, V domains shown)
VH: QVQLVQSGAEVKKPGASVKVSCKVSGYSLTELSIHWVRQAPGKGLEWMGGFDPEDGEIIFAQKFQGRVTLTEDISLDTAYMEVSSLRSEDTAVYYCATEGHDSGDYVGYYYYGLDVWGQGTTVTVSS
VL: DIQMTQSPSSLSASVGDRVTITCRASQDIRNFLAWYQQKPGKLPKLLIYAASTLQSGVPSRFSGSGSGTDFTLTISSLQPEDVASYYCQSHNSVPFTFGPGTKVDIR
notes: fully human anti-heparanase monoclonal antibody, G2κ; ATCC PTA-9489
Tumour growth inhibition (HCT116 xenograft): not inhibited
